Test results published in article doi:10.1101/2023.03.29.533101 (bioRxiv, 2023).
Like-named read-outs stand apart in the source and are kept apart here.

Experiments:
crystal structure [1] = target: the molecule itself; assay: crystal structure
crystal structure [2] = target: the molecule itself; assay: crystal structure; remark: listed apart in the source

Protein | binding result (crystal structure [1]) | binding result (crystal structure [2])
OpgG from E. coli (EcOpgG) D361N mutant (enzyme, Escherichia coli, UniProt P33136 23-511, looked up) FSIDDVAKQAQSLAGKGYETPKSNLPSVFRDMKYADYQQIQFNHDKAYWNNLKTPFKLEFYHQGMYFDTPVKINEVTATAVKRIKYSPDYFTFGDVQHDKDTVKDLGFAGFKVLYPINSKDKNDEIVSMLGASYFRVIGAGQVYGLSARGLAIDTALPSGEEFPRFKEFWIERPKPTDKRLTIYALLDSPRATGAYKFVVMPGRDTVVDVQSKIYLRDKVGKLGVAPLTSMFLFGPNQPSPANNYRPELHDSNGLSIHAGNGEWIWRPLNNPKHLAVSSFSMENPQGFGLLQRGRDFSRFEDLDDRYDLRPSAWVTPKGEWGKGSVELVEIPTNDETNNNIVAYWTPDQLPEPGKEMNFKYTITFSRDEDKLHAPDNAWVQQTRRSTGDVKQSNLIRQPDGTIAFVVDFTGAEMKKLPEDTPVTAQTSIGDNGEIVESTVRYNPVTKGWRLVMRVKVKDAKKTTEMRAALVNADQTLSETWSYQLPANE | binds | 
OpgD from E. coli (EcOpgD) D388N mutant (enzyme, Escherichia coli, UniProt P40120 33-551, looked up) ADSDIADGQTQRFDFSILQSMAHDLAQTAWRGAPRPLPDTLATMTPQAYNSIQYDAEKSLWHNVENRQLDAQFFHMGMGFRRRVRMFSVDPATHLAREIHFRPELFKYNDAGVDTKQLEGQSDLGFAGFRVFKAPELARRDVVSFLGASYFRAVDDTYQYGLSARGLAIDTYTDSKEEFPDFTAFWFDTVKPGATTFTVYALLDSASITGAYKFTIHCEKSQVIMDVENHLYARKDIKQLGIAPMTSMFSCGTNERRMCDTIHPQIHDSDRLSMWRGNGEWICRPLNNPQKLQFNAYTDNNPKGFGLLQLDRDFSHYQDIMGWYNKRPSLWVEPRNKWGKGTIGLMEIPTTGETLNNIVCFWQPEKAVKAGDEFAFQYRLYWSAQPPVHCPLARVMATRTGMGGFSEGWAPGEHYPEKWARRFAVDFVGGDLKAAAPKGIEPVITLSSGEAKQIEILYIEPIDGYRIQFDWYPTSDSTDPVDMRMYLRCQGDAISETWLYQYFPPAPDKRQYVDDRVMS |  | binds
